1 molecule from PMC5780489, “Characterization of the multimeric structure of poly(A)-binding protein on a poly(A) tail” (Scientific Reports, 2018) can be followed below.

For this assay, the target named is T1, PABPC1 RRM1/2/3/4 (residues 1-370) (human, UniProt P11940 1-370).
T1 construct: human PABPC1, residues 1-370 (RRM1 to RRM4), cloned into pET-42b(+); Used in complex with long poly(A) or A24 RNA; Purification details are in the Supplementary methods; source: E. coli, purified (Glutathione-Sepharose 4B, GST cleaved off, cation exchange, gel filtration)
As to the kind of experiment: NMR titration; 1H-15N HSQC of 15N-labelled Lt2 (100 μM) with RRM1/2/3/4-A24 at 50, 100 and 150 μM; chemical shift changes of W437 side chain, W437 and T438 fitted to a 1:1 model; not saturated; 303 K, 26 mM NaH2PO4 pH 6.0, 100 mM NaCl. To be noted: both partners purified.

In general, Kd refers to the constant that tells how readily two partners part at equilibrium.

T1 sequence (P11940 1-370): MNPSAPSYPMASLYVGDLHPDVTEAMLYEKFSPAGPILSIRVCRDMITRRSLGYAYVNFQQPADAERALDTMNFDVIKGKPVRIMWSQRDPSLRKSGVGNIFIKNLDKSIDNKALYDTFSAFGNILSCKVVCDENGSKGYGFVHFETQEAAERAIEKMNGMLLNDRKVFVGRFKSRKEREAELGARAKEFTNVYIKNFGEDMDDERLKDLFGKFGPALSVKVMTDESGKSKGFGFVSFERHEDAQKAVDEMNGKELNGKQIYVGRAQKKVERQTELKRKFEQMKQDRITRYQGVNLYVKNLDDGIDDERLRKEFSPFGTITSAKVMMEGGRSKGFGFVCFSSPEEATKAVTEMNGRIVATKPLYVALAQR

B1: PABPC1 linker fragment Lt2 (residues 421-470) (peptide, UniProt P11940 421-470, looked up)
chain: AYYPPSQIAQLRPSPRWTAQGARPHPFQNMPGAIRPAAPRPPFSTMRPAS
notes: human PABPC1, residues 421-470, cloned into pGEX-6p-1; Uniformly 15N-labelled for NMR
Regarding B1, the dissociation constant (Kd) was 10 to 54 µM.
